From article PMC11931385, “Structural and functional analysis of cancer-associated missense variants in the retinoblastoma protein pocket domain” (The Journal of Biological Chemistry, 2025)
No end group written: not given here. TMR = tetramethyl rhodamine dye

What was measured:
Test in all cases: fluorescence polarisation; 25 °C; unlabeled Rb^P titrated against 1.5 nM TMR-E2F1^TD or 7.5 nM TMR-E7^LxCxE; 25 mM Tris pH 8.0, 200 mM NaCl, 1 mM DTT, 0.1% Tween-20; 2 min incubation; quadratic fit; apparent Kd for the variants, Kd for WT
Conditions in all cases: both partners purified
[1] = target: T1, Rb^P R451S (human, UniProt P06400 380-788, R451S)
T1 construct: also called variant 7
T1 sequence (looked up): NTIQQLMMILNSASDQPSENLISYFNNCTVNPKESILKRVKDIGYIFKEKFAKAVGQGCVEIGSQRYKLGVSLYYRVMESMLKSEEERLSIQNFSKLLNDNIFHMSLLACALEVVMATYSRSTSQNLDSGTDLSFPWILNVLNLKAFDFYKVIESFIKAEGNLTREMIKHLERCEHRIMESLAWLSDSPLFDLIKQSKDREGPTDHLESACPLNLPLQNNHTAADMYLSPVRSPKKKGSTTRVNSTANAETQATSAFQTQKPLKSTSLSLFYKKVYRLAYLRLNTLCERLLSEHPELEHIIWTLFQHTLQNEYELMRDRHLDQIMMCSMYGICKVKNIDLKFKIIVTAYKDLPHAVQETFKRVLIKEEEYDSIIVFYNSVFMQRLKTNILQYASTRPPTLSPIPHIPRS

[2] = target: T2, Rb^P H555Y (human, UniProt P06400 380-788, H555Y)
T2 construct: also called variant 29
T2 sequence (looked up): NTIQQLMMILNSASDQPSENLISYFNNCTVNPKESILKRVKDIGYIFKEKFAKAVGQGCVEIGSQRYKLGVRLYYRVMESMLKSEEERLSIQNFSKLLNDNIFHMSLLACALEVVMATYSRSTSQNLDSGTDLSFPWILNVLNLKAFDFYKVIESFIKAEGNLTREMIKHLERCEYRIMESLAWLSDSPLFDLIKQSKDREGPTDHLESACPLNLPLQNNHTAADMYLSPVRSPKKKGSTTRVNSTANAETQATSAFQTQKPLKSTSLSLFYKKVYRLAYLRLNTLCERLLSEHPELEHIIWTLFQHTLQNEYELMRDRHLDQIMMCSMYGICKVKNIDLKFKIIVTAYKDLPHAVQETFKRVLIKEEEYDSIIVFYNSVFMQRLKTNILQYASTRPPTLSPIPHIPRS

[3] = target: T3, Rb^P E554K (human, UniProt P06400 380-788, E554K)
T3 construct: also called variant 28
T3 sequence (looked up): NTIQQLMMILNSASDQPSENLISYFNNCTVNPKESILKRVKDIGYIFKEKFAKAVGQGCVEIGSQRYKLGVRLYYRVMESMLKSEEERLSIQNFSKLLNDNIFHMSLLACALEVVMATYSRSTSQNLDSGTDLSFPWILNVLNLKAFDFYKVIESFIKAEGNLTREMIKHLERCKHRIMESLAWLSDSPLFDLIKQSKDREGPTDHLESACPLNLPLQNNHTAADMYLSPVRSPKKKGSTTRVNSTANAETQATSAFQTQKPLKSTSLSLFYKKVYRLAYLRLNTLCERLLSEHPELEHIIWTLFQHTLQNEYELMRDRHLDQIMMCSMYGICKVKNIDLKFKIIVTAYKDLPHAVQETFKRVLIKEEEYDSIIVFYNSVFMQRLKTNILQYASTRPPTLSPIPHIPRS

[4] = target: T4, Rb^P M704V (human, UniProt P06400 380-788, M704V)
T4 construct: also called variant 66
T4 sequence (looked up): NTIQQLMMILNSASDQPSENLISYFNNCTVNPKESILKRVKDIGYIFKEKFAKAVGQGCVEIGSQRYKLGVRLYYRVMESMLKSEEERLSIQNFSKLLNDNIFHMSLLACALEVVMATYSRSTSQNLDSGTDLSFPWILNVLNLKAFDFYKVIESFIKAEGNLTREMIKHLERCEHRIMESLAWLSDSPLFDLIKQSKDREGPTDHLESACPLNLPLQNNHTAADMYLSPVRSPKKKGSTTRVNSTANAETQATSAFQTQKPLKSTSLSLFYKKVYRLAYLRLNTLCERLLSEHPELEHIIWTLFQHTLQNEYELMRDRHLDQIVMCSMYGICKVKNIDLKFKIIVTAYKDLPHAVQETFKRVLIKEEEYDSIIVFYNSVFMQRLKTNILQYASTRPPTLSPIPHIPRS

[5] = target: T5, Rb^P R451H (human, UniProt P06400 380-788, R451H)
T5 construct: also called variant 6
T5 sequence (looked up): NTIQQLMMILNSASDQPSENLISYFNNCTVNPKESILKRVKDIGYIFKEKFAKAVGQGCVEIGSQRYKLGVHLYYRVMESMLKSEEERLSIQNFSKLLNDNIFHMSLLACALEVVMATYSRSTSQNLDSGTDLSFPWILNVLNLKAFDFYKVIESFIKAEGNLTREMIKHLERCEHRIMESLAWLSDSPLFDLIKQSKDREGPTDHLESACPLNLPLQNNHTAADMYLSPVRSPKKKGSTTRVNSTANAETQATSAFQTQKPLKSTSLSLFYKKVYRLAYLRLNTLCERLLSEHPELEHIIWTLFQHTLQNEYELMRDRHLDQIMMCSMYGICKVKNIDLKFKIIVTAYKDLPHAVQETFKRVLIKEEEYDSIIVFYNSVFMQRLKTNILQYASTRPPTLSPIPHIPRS

Row | Binder | Kd [1] [µM] | Kd [2] [µM] | Kd [3] [µM] | Kd [4] [µM] | Kd [5] [µM]
1 | {TMR}-GEGIRDLFDCDFGDLTPLD (also called E2F^TD; source: synthetic peptide, bought: GenScript) [TMR-E2F1^TD, peptide of the E2F1 transactivation domain] | 0.026 | 0.158 | 1.17 | 0.041 | 0.029
2 | DLYCYEQLN (also: TMR label, position not given here, source: synthetic peptide, bought: GenScript) [TMR-E7^LxCxE, LxCxE peptide of the E7 oncoprotein from HPV] | 0.009 | 0.008 | 0.012 | 0.018 | 0.009
